This note sets out measurements from PMC2661964, “Mammalian Kinesin-3 Motors Are Dimeric In Vivo and Move by Processive Motility upon Release of Autoinhibition” (PLoS Biology, 2009).

Data set [1] deals with the molecule itself. Description: stepwise photobleaching of single molecules (TIRF microscopy); lysates of COS cells expressing 3xmCit-tagged constructs, in flow chambers with Cy5-microtubules, with AMPPNP; number of bleaching steps of 160–200 spots for each construct.
Data set [2] concerns the molecule itself. Description: cross-linking; lysates of transfected COS cells in borate buffer (50 mM NaBorate, 100 mM potassium acetate, 2 mM MgCl2, 1 mM EGTA, 1% Triton X-100, pH 8.57), 20 mM DMP for 30 min or untreated; SDS-PAGE, immunoblot. For orientation: A western blot detects proteins with antibodies after separation by electrophoresis.

B1: KIF1A(1–393)-3xmCit (domain or fragment, rat, UniProt F1M4A4 1-393, looked up)
chain: MAGASVKVAVRVRPFNSREMSRDSKCIIQMSGSTTTIVNPKQPKETPKSFSFDYSYWSHTSPEDINYASQKQVYRDIGEEMLQHAFEGYNVCIFAYGQTGAGKSYTMMGKQEKDQQGIIPQLCEDLFSRINDTTNDNMSYSVEVSYMEIYCERVRDLLNPKNKGNLRVREHPLLGPYVEDLSKLAVTSYNDIQDLMDSGNKARTVAATNMNETSSRSHAVFNIIFTQKRHDAETNITTEKVSKISLVDLAGSERADSTGAKGTRLKEGANINKSLTTLGKVISALAEMDSGPNKNKKKKKTDFIPYRDSVLTWLLRENLGGNSRTAMVAALSPADINYDETLSTLRYADRAKQIRCNAIINEDPNNKLIRELKDEVTRLRDLLYAQGLGDITD
notes: source: COS cells, transfected, in lysate
As a reminder, the stoichiometry N is a count of units in the complex or per binding partner. For B1, the “stoichiometry N” value in data set [1] turned out to be 2.

B2: KIF1A(1–393)-mCit (domain or fragment, rat, UniProt F1M4A4 1-393, looked up)
chain: B1 chain
notes: full NC and several residues of the hinge; Plasmid was a gift from Gary Banker; source: COS cells, transfected, in lysate; not shown: mCit (monomeric citrine), C-terminal, kept
Consider B2, for which the “stoichiometry N” value in data set [2] turned out to be 2.

B3: KIF1A(1–726)-3xmCit (domain or fragment, rat, UniProt F1M4A4 1-726, looked up)
chain: MAGASVKVAVRVRPFNSREMSRDSKCIIQMSGSTTTIVNPKQPKETPKSFSFDYSYWSHTSPEDINYASQKQVYRDIGEEMLQHAFEGYNVCIFAYGQTGAGKSYTMMGKQEKDQQGIIPQLCEDLFSRINDTTNDNMSYSVEVSYMEIYCERVRDLLNPKNKGNLRVREHPLLGPYVEDLSKLAVTSYNDIQDLMDSGNKARTVAATNMNETSSRSHAVFNIIFTQKRHDAETNITTEKVSKISLVDLAGSERADSTGAKGTRLKEGANINKSLTTLGKVISALAEMDSGPNKNKKKKKTDFIPYRDSVLTWLLRENLGGNSRTAMVAALSPADINYDETLSTLRYADRAKQIRCNAIINEDPNNKLIRELKDEVTRLRDLLYAQGLGDITDTNTVPGGPKLTNALVGMSPSSSLSALSSRAASVSSLHERILFAPGSEEAIERLKETEKIIAELNETWEEKLRRTEAIRMEREALLAEMGVAMREDGGTLGVFSPKKTPHLVNLNEDPLMSECLLYYIKDGVTRVGREDAERRQDIVLSGHFIKEEHCIFRSDSRGGGEAVVTLEPCEGADTYVNGKKVTEPSILRSGNRIIMGKSHVFRFNHPEQARQERERTPCAETPAEPVDWAFAQRELLEKQGIDMKQEMEQRLQELEDQYRREREEATYLLEQQRLDYESKLEALQKQMDSRYYPEVNEEEEEPEDEVQWTERECELALWAFRKWKWY
notes: as for B1
For B3, in data set [1], the “stoichiometry N” value is 2.

B4: KIF1A(1–726)-mCit (domain or fragment, rat, UniProt F1M4A4 1-726, looked up)
chain: B3 chain
notes: source: COS cells, transfected, in lysate; not shown: mCit (monomeric citrine), C-terminal, kept
B4: the “stoichiometry N” value in data set [2] amounted to 2.

B5: KIF1A-3xmCit (natural protein, rat, UniProt F1M4A4 1-1707, looked up)
chain: MAGASVKVAVRVRPFNSREMSRDSKCIIQMSGSTTTIVNPKQPKETPKSFSFDYSYWSHTSPEDINYASQKQVYRDIGEEMLQHAFEGYNVCIFAYGQTGAGKSYTMMGKQEKDQQGIIPQLCEDLFSRINDTTNDNMSYSVEVSYMEIYCERVRDLLNPKNKGNLRVREHPLLGPYVEDLSKLAVTSYNDIQDLMDSGNKARTVAATNMNETSSRSHAVFNIIFTQKRHDAETNITTEKVSKISLVDLAGSERADSTGAKGTRLKEGANINKSLTTLGKVISALAEMDSGPNKNKKKKKTDFIPYRDSVLTWLLRENLGGNSRTAMVAALSPADINYDETLSTLRYADRAKQIRCNAIINEDPNNKLIRELKDEVTRLRDLLYAQGLGDITDTNTVPGGPKLTNALVGMSPSSSLSALSSRAASVSSLHERILFAPGSEEAIERLKETEKIIAELNETWEEKLRRTEAIRMEREALLAEMGVAMREDGGTLGVFSPKKTPHLVNLNEDPLMSECLLYYIKDGVTRVGREDAERRQDIVLSGHFIKEEHCIFRSDSRGGGEAVVTLEPCEGADTYVNGKKVTEPSILRSGNRIIMGKSHVFRFNHPEQARQERERTPCAETPAEPVDWAFAQRELLEKQGIDMKQEMEQRLQELEDQYRREREEATYLLEQQRLDYESKLEALQKQMDSRYYPEVNEEEEEPEDEVQWTERECELALWAFRKWKWYQFTSLRDLLWGNAIFLKEANAISVELKKKVQFQFVLLTDTLYSPLPPDLLPPEAAKDRETRPFPRTIVAVEVQDQKNGATHYWTLEKLRQRLDLMREMYDRAAEVPSSVVEDCDNVVTGGDPFYDRFPWFRLVGRAFVYLSNLLYPVPLVHRVAIVSEKGEVKGFLRVAVQAISADEEAPDYGSGVRQSGTAKISFDDQHFEKFQSESCPVVGMSRSGTSQEELRIVEGQGQGADAGPSADEVNNNTCSAVPPEGLLDSPEKAALDGPLDTALDHLRLGSTFTFRVTVLQASSISAEYADIFCQFNFIHRHDEAFSTEPLKNTGRGPPLGFYHVQNIAVEVTKSFIEYIKSQPIVFEVFGHYQQHPFPPLCKDVLSPLRPSRRHFPRVMPLSKPVPATKLSTMTRPSPGPCHCKYDLLVYFEICELEANGDYIPAVVDHRGGMPCMGTFLLHQGIQRRITVTLLHETGSHIRWKEVRELVVGRIRNTPETDEALIDPNILSLNILSSGYVHPAQDDRQFLDSDIPRTFYQFEAAWDSSMHNSLLLNRVTPYREKIYMTLSAYIEMENCTQPAVITKDFCMVFYSRDAKLPASRSIRNLFGSGSLRATEGNRVTGVYELSLCHVADAGSPGMQRRRRRVLDTSVAYVRGEENLAGWRPRSDSLILDHQWELEKLSLLQEVEKTRHYLLLREKLETTQRPVPEVLSPASSEDSESRSSSGASSPLSAEGQPSPLEVPNERQRELAVKCLRLLMHTFNREYTHSHVCISASESKLSEMSVTLMRDPSMSPLGAATLTPSSTCPSLIEGRYGATDVRTPQPCSRPASPEPELLPELDSKKTPSPVRATETEKEPQRLLVPDIQEIRVSPIVSKKGYLHFLEPHTAGWAKRFVVVRRPYAYMYNSDKDTVERFVLNLSTAQVEYSEDQQAMLKTPNTFAVCTEHRGILLQANSDKDMHDWLYAFNPLLAGTIRSKLSRRRSAQMRV
notes: KIF1A (Kinesin-3 motor), rat, full length; Vector 3xmCit-N1; also called FL; 3xmCit-tagged FL KIF1A; source: COS cells, transfected, in lysate
For the protein B5, in data set [1], the “stoichiometry N” value came to 2.

B6: mCit-KIF1A (natural protein, rat, UniProt F1M4A4 1-1707, looked up)
chain: B5 chain
notes: KIF1A (Kinesin-3 motor), rat, full length; also called mCit-tagged KIF1A; FL KIF1A; source: COS cells, transfected; in lysate and in live cells; not shown: mCit (monomeric citrine), N-terminal, kept
As to B6, in data set [2], the “stoichiometry N” value was about 2.

B7: Myc-KIF1A (natural protein, rat, UniProt F1M4A4 1-1707, looked up)
chain: B5 chain
notes: KIF1A (Kinesin-3 motor), rat, full length; Cloned into pRK5-Myc; also called Myc-tagged KIF1A; FL KIF1A; source: COS cells, transfected, in lysate
For B7, in data set [2], the “stoichiometry N” value was about 2.
